Laboratory results as given in US20250297255A1 (ARSENAL BIOSCIENCES, published 2025).

Target: T1, Human TMPRSS4 (Transmembrane protease, serine 4), wild type full length (human, UniProt Q9NRS4 1-437)
T1 construct: Type II membrane protein over-expressed on HEK293T cells (also endogenous on H1975 and LUDLU-1 cells); also called TMPRSS4 WT; HEK293T-TMPRSS4
Test: flow cytometry, monoclonal phage on HEK293T-TMPRSS4 cells;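 note: bound phage detected with a PE-labelled mouse anti-M13 monoclonal antibody, read by flow cytometry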
Method: Monoclonal phages were prepared, screened for binding to HEK293T-TMPRSS4 cells by flow cytometry. Monoclonal phage clones were incubated with HEK293T-TMPRSS4 cells, the cells were washed and then incubated with a PE conjugated mouse anti-M13 mAb, and washed again before being analyzed by flow cytometry. The positive candidates were selected based on cytometry results, then followed by next-gen sequencing of the positive hits.

T1 sequence (Q9NRS4 whole entry): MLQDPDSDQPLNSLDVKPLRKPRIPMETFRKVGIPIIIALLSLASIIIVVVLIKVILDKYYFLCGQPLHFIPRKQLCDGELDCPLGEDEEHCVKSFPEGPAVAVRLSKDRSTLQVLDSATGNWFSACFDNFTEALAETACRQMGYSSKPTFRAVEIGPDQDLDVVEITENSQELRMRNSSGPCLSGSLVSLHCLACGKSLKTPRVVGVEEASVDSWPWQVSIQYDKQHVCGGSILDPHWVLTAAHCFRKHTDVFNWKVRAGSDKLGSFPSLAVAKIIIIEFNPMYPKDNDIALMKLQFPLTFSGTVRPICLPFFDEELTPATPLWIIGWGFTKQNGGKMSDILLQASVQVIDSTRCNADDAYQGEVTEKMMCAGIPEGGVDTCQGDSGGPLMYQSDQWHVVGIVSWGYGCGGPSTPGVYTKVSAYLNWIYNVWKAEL

B1: TMPRSS4 Ab74 scFv (VH-VL) (scFv)
scFv: EVQLLESGGGLVQPGGSLRLSCAASGFTFSSYAMHWVRQAPGKGLEWVSSISSSSTYIHYADSVKGRFTISRDNSKNTLYLQMNSLRAEDTAVYYCARVGRYYGSGSSLVDYWGQGTLVTVSSGGGGSGGGGSGGGGSDIQMTQSPSSLSASVGDRVTITCRASQSVSSWLAWYQQKPGKAPKLLIYDASSLQSGVPSRFSGSGSGTDFTLTISSLQPEDFATYYCQQAKSFPPTFGQGTKVEIK
notes: on monoclonal phage in the screen
- binding result: binds

B2: TMPRSS4 Ab8 scFv (VH-VL) (scFv)
scFv: QVQLVQSGAEVKKPGASVKVSCKASGYRFTSQYMHWVRQAPGQGLEWMGIINPSGGSTSYAQKFQGRVTMTRDTSTSTVYMELSSLRSEDTAVYYCARGRIAVAGHPLGYWGQGTLVTVSSGGGGSGGGGSGGGGSDIQMTQSPSSLSASVGDRVTITCRASQSISSWLAWYQQKPGKAPKLLIYGASSLQSGVPSRFSGSGSGTDFTLTISSLQPEDFATYYCQQANSFPPTFGGGTKVEIK
notes: as for B1
- binding result: binds

B3: TMPRSS4 Ab9 scFv (VH-VL) (scFv)
scFv: QVQLVQSGAEVKKPGASVKVSCKASGYTFTRYYMHWVRQAPGQGLEWMGWINPNSGGTNYAQKFQGRVTMTRDTSTSTVYMELSSLRSEDTAVYYCARGGSWGSGPLGYWGQGTLVTVSSGGGGSGGGGSGGGGSDIQMTQSPSSLSASVGDRVTITCQASQDISRFLHWYQQKPGKAPKLLIYGASNLKSGVPSRFSGSGSGTDFTLTISSLQPEDFATYYCQQSYSTPPTFGGGTKVEIK
notes: as for B1
- binding result: binds

B4: TMPRSS4 Ab78 scFv (VH-VL) (scFv)
scFv: EVQLLESGGGLVQPGGSLRLSCAASGFTFSSYGMNWVRQAPGKGLEWVSAISGSGGRTYYADSVKGRFTISRDNAKNSLYLQMNSLRAEDTAVYYCAKGTYYSSPKYSFDYWGQGTLVTVSSGGGGSGGGGSGGGGSDIQMTQSPSSLSASVGDRVTITCRASQDIKNFLAWYQQKPGKAPKLLIYAASSLQSGVPSRFSGSGSGTDFTLTISSLQPEDFATYYCQQSYSTPWTFGQGTKLEIK
notes: as for B1
- binding result: binds

B5: TMPRSS4 Ab71 scFv (VH-VL) (scFv)
scFv: EVQLLESGGGLVQPGGSLRLSCAASGFMFDYYAMHWVRQAPGKGLEWVSLISYDGRNKYYADSVKGRFTISRDNSKNTLYLQMNSLRAEDTAVYYCARPGSYSRFQHWGQGTLVTVSSGGGGSGGGGSGGGGSDIQMTQSPSSLSASVGDRVTITCRASQGISNNLNWYQQKPGKAPKLLIYAASSLQSGVPSRFSGSGSGTDFTLTISSLQPEDFATYYCQQANNFPITFGQGTKVEIK
notes: as for B1
- binding result: binds

B6: TMPRSS4 Ab67 scFv (VH-VL) (scFv)
scFv: QVQLVQSGAEVKKPGSSVKVSCKASGYTFTSYDINWVRQAPGQGLEWMGGIIPIFGTANYAQKFQGRVTITADESTSTAYMELSSLRSEDTAVYYCATTPGDAFDIWGQGTMVTVSSGGGGSGGGGSGGGGSDIVMTQSPDSLAVSLGERATINCKSSQSVLYSSNNKNYLAWYQQKPGQPPKLLIYWASTRESGVPDRFSGSGSGTDFTLTISSLQAEDVAVYYCQQYSDTPLTFGQGTKVEIK
notes: as for B1
- binding result: binds

B7: TMPRSS4 Ab70 scFv (VH-VL) (scFv)
scFv: EVQLLESGGGLVQPGGSLRLSCAASGFAFSGTWMQWVRQAPGKGLEWVSDISGSSRDTNYADSVKGRFTISRDNSKNTLYLQMNSLRAEDTAVYYCAKDHWDSYGYLDYWGQGTLVTVSSGGGGSGGGGSGGGGSDIQMTQSPSSLSASVGDRVTITCRASQSISGWLAWYQQKPGKAPKLLIYAASTLRDGVPSRFSGSGSGTDFTLTISSLQPEDFATYYCQQANSFPLTFGQGTKVEIK
notes: as for B1
- binding result: binds

B8: TMPRSS4 Ab75 scFv (VH-VL) (scFv)
scFv: EVQLLESGGGLVQPGGSLRLSCAASGFTFSSYAMSWVRQAPGKGLEWVSSISSASSYKYYADSVKGRFTISRDNSKNTLYLQMNSLRAEDTAVYYCARDIYSSGWRGYYYYGMDVWGQGTTVTVSSGGGGSGGGGSGGGGSDIQMTQSPSSLSASVGDRVTITCRASQGIRNDLNWYQQKPGKAPKLLIYAATRLQSGVPSRFSGSGSGTDFTLTISSLQPEDFATYYCQQAHSFPYSFGQGTRLEIK
notes: as for B1
- binding result: binds

B9: TMPRSS4 Ab69 scFv (VH-VL) (scFv)
scFv: EVQLLESGGGLVQHGGSLRLSCAASGFAFSSYVLHWVRQAPGKGLEWVSSISSSSSYIYYADSVKGRFTISRDNSKNTLYLQMNSLRAEDTAVYYCARGDRYPGLPNYWGQGTLVTVSSGGGGSGGGGSGGGGSDIQMTQSPSSLSASVGDRVTITCRASQGISSWLAWYQQKPGKAPKLLIYQASNKDTGVPSRFSGSGSGTDFTLTISSLQPEDFATYYCQQSYRIPWTFGQGTKVEIK
notes: as for B1
- binding result: binds

B10: TMPRSS4 Ab76 scFv (VH-VL) (scFv)
scFv: EVQLLESGGGLVQPGGSLRLSCAASGFTFSSYAMSWVRQAPGKGLEWVSAISGSGGNAYYADSVKGRFTISRDNAKNSLYLQMNSLRAEDTAVYYCAKNSWGSYRPRAFDIWGQGTMVTVSSGGGGSGGGGSGGGGSDIVMTQSPDSLAVSLGERATINCKSSQSVLYSSNNKNYLAWYQQKPGQPPKLLIYWASTRASGVPDRFSGSGSGTDFTLTISSLQAEDVAVYYCQQYLSLPYTFGQGTKVEIK
notes: as for B1
- binding result: binds

B11: TMPRSS4 Ab7 scFv (VH-VL) (scFv)
scFv: QVQLVQSGAEVKKPGASVKVSCKASGYTFSRYFMHWVRQAPGQGLEWVGWINPNSGNTGYAQKFQGRVTMTRDTSTSTVYMELSSLRSEDTAVYYCARVVTGGRLDVWGQGTTVTVSSGGGGSGGGGSGGGGSEIVMTQSPATLSVSPGERATLSCRASQRVSNNYLAWYQQKPGQAPRLLIYGASTRASGIPARFSGSGSGTEFTLTISSLQSEDFAVYYCQQYGSTPYTFGQGTKVEIK
notes: as for B1
- binding result: binds

B12: TMPRSS4 Ab72 scFv (VH-VL) (scFv)
scFv: EVQLLESGGGLVQPGGSLRLSCAASGFTFGAYVMHWVRQAPGKGLEWVSSISGGSTYYADSVKGRFTISRDNSKNTLYLQMNSLRAEDTAVYYCARHPVRGVIGAGWFDPWGQGTLVTVSSGGGGSGGGGSGGGGSDIQMTQSPSSLSASVGDRVTITCRASQNISRWLAWYQQKPGKAPKLLIYAASSLQSGVPSRFSGSGSGTDFTLTISSLQPEDFATYYCQQAISFPLTFGGGTKVEIK
notes: as for B1
- binding result: binds

B13: TMPRSS4 Ab77 scFv (VH-VL) (scFv)
scFv: QVQLVQSGAEVKKPGASVKVSCKASGNIFTAQYMHWVRQAPGQGLEWMGWMNPNTVYTGSAQKFQGRVTMTRDTSTSTVYMELSSLRSEDTAVYYCARDWVGDGYNSFDYWGQGTLVTVSSGGGGSGGGGSGGGGSDIVMTQSPDSLAVSLGERATINCKSSQSVLYSSNNKNYLAWYQQKPGQPPKLLIYWASTRESGVPDRFSGSGSGTDFTLTISSLQAEDVAVYYCQQYYTTPFTFGPGTKVDIK
notes: as for B1
- binding result: binds
